From patent publication US20250195685A1 (CAPSTAN THERAPEUTICS, published 2025) come the findings set out here.

Numbering of substitutions follows the chain as printed. In names and notes the source's numbering stands.

Experiment [1] has as its target T1, human CD8αα homodimer, recombinant protein (Acro Biosystems) (human, UniProt P01732 22-182).
T1 construct: also called CD8αα antigen; biotinylated CD8α recombinant protein (CDA-H82E3)
Nature of the experiment: BLI kinetic rate analysis, Fab fragment (temperature not given). As for the experimental part:
(§1) Biolayer interferometry kinetic assays were performed using a GatorBio Gator Plus BLI system. Kinetic buffer containing PBS plus 0.1% Tween 20 and 0.2% BSA was used for calculating the baseline. To measure the binding kinetics of anti-CD8α antibody fragment (Fab), streptavidin-immobilized SA-XT sensors (#160029, Gator Bio) were prehydrated in the kinetic buffer and loaded with […] biotinylated CD8α recombinant protein (CDA-H82E3, Acro Biosystems) at a spin speed of 400 rpm to a threshold response of 10 nm. The sensors were then incubated in the kinetic buffer for 300 s to acquire a baseline measurement prior to each association. […] The antigen-loaded sensors were incubated in the diluted solutions to capture Fab fragments for 300 s to record the association phase. Sensors were finally incubated in the kinetic buffer for 900 s to record the dissociation phase. The spin speed for all steps except the antigen loading step was 1000 rpm. The temperature of the performed assays was either 30° C. or 37° C. during the association and dissociation phases. Sensor data were baseline subtracted, and global curve fitting of the kinetic data from six different analyte concentrations at a 1:1 monovalent binding model was performed using GatorOne software (version v2.10) to determine kinetic rate constants (kₒₙ and koff) and equilibrium dissociation constants (KD) of the analyzed antibodies.
For orientation: Biolayer interferometry detects binding as a change in optical thickness at a sensor tip.

Experiment [2] deals with T1, human CD8αα homodimer, recombinant …. Nature of the experiment: BLI kinetic assay, engineered F(ab') fragment. As for the experimental part:
The global fitting was performed with a 1:1 fitting model using GatorOne software as described below.
as §1

Experiment [3] has the same target. Nature of the experiment: BLI steady state, whole hIgG1-LALAPA antibody on CD8α-His (Ni-NTA sensor), 30 °C. As for the experimental part:
(§2) To assess affinity of whole antibodies, steady state analysis was used as the bivalent nature of both whole antibody and CD8α complicates kinetic analysis. 50 nM CD8α-His (that is, CD8α with a C-terminal oligohistidine tag; Acro) was immobilized on Ni-NTA sensor probes. Binding was analyzed with a three-fold antibody dilutions series: 60 nM, 20 nM, 6.67 nM, 2.22 nM, 0.74 nM, and 0.25 nM. The antigen-loaded sensors were incubated in the diluted solutions to capture the whole IgG antibody for 300 s to record the association phase. Sensors were incubated in the kinetic buffer for 900 s to record the dissociation phase. The spin speed was 1000 rpm for all steps except the antigen loading step which was 400 rpm to control density of the antigen. The temperature of the performed assays was at 30° C. during the association and dissociation phases. The sensor data were baseline subtracted and further analyzed in GatorOne software (version 2.10) to determine the equilibrium dissociation constants (KD) of the antibodies by fitting the signals of the steady states to the 1:1 binding model.

Experiment [4] shares this target. Described as above. As for the experimental part: as §2
The source holds these as a separate data set.

For experiment [5], the target named is T2, human CD8 on cells (CD8-overexpressing HEK293T cells, SupT1, HPB-ALL, human T cells, transfected HEK293 of … (human, UniProt P01732 22-235)).
T2 construct: whole, on cells; also called cell surface CD8
T2 sequence (P01732 22-235): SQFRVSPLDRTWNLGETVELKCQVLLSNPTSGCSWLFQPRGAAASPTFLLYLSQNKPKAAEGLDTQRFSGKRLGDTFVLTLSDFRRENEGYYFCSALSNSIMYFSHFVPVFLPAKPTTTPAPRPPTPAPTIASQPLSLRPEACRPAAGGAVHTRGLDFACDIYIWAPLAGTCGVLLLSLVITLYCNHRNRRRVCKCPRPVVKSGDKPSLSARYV
Put plainly: flow cytometry on CD8-overexpressing HEK293T cells, non-linear fit of normalized gMFI. As for the experimental part:
To obtain the results shown in FIG. 3A, that determined EC₅₀ values for antigen-specific binding, CD8-overexpressing HEK293T cells were dissociated in Versine solution (PBS buffer at pH 7.4 supplemented with 0.5 mM EDTA), and 2×10⁵ total cells were transferred to a V-bottom 96 well culture plate (Corning). Cells were washed twice with Cell Staining buffer (#420201, Biolegend). Each anti-CD8α antibody with human IgG1 isotype and Fc-silencing mutations L234A, L235A and P329A was diluted in four-fold antibody titration series from 100 μg/mL to 6.1 ng/ml into Cell Staining buffer. eFluor 780 Fixable Viability dye (eBioscience) was also included during antibody solutions at a 1:4000 dilution. Cells were stained with each diluted antibody solution for 30 minutes on ice. Cells were then washed three times with Cell Staining buffer and primary antibody binding was detected by staining with anti-human Fc BV421 conjugate antibody (#410704, Biolegend) at 1:100 dilution for 30 minutes on ice. After staining with the secondary detection antibody, cells were washed three times with Cell Staining buffer, fixed in FluoroFix buffer (Biolegend) and kept at 4° C. in the dark until analysis. Flow cytometry analysis on each sample was performed on an Agilent NovoCyte flow cytometer. Flow cytometry data was analyzed by Flowjo 10 (Becton, Dickinson & Company) to measure the geometric median fluorescence intensity (gMFI) of the on-cell binding from each antibody. The gMFI values were normalized with the gMFI measured in the sample stained with only the secondary detection antibody and plotted against the concentration of the added antibodies. The binding curves were constructed using the Graphpad Prism software, and EC₅₀ values were determined by non-linear curve fitting.
(Flow cytometry measures light scatter and fluorescence of single cells or particles in a stream.)

T1 sequence (P01732 22-182 limits assumed): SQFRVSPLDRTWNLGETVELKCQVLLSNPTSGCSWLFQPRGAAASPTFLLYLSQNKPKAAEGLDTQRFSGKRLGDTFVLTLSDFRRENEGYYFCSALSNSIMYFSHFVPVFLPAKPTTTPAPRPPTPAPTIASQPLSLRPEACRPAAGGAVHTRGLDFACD

B1: CBD1445 Fab (VL D30A of CBD1033) (Fab, V domains shown)
VH: QVQLVQSGAEVKKPGASVKVSCKASRYTFTDYNLHWVRQAPGQGLEWMGFIYPYNGGTGYAQKFQGRVTMTVDTSTSTAYMELSSLRSEDTAVYYCARDHRYNEGVSFDYWGQGTTVTVSS
VL: DIQLTQSPSSLSASVGDRATITCRASESVAGFGNSFMNWYQQKPGKAPKLLIYLASNLESGVPSRFSGSGSGTDFTLTISSVQPEDFATYYCQQNNEDPYTFGQGTKLEIK
Turning to B1, in experiment [1], the Kd (in general, the equilibrium constant for the complex coming apart) stood at 15.6 nM; the koff (as a rule, the first-order rate constant of dissociation) was 0.00048 s⁻¹; the kon (commonly the rate constant with which the complex forms) turned out to be 30700 M⁻¹ s⁻¹.

B2: CBD1033.44 disulfide-engineered F(ab') analog (IgG1, truncated T238) (Fab, V domains shown)
VH: B1 VH
VL: DIQLTQSPSSLSASVGDRATITCRASESVDGFGNSFMNWYQQKPGKAPKLLIYLASNLESGVPSRFSGSGSGTDFTLTISSVQPEDFATYYCQQNNEDPYTFGQGTKLEIKR
notes: also called .44 design
In the case of B2, in experiment [2], the dissociation constant (Kd) came out at 7.23 nM, the koff is 8.88e-05 s⁻¹ and the kon was 12300 M⁻¹ s⁻¹.

B3: CBD1033.42 disulfide-engineered F(ab') analog (IgG1, truncated P240) (Fab, V domains shown)
VH: B1 VH
VL: B2 VL
notes: also called .42 design
In the case of B3, in experiment [2], the dissociation constant (Kd) was found to be 5.09 nM, the koff stood at 6.41e-05 s⁻¹ and the association rate constant (kon) amounted to 12600 M⁻¹ s⁻¹.

B4: CBD1048 (antibody, human IgG1, kappa, L234A L235A, V domains shown)
VH: B1 VH with M70L, T74Y, T116L
VL: EIVLTQSPGTLSLSPGERATLSCRASESVDGFGNSFMNWYQQKPGQAPRLLIYLASNLESGVPARFSGSGSRTDFTLTISRLEPEDFAVYYCQQNNEDPYTFGQGTKVEIKR
notes: also called h1017-H9/L6 whole antibody hIgG1-LALAPA
Regarding B4, the Kd in experiment [3] worked out at 5.45 nM.

B5: CBD1044 (antibody, human IgG1, kappa, L234A L235A, V domains shown)
VH: B1 VH with M48I, M70I, V72A, T116L
VL: B4 VL
notes: also called h1017-H7/L6 whole antibody hIgG1-LALAPA
As for B5, the equilibrium dissociation constant (Kd) in experiment [3] is 8.65 nM.

B6: CBD1041 (antibody, human IgG1, kappa, L234A L235A, V domains shown)
VH: B1 VH with G59N, M70I, V72A, T116L
VL: B4 VL with V62I, R72G
notes: also called h1017-H6/L4 whole antibody hIgG1-LALAPA
In the case of B6, the dissociation constant (Kd) in experiment [3] is 10.2 nM.

B7: CBD1623 Fab (VL D30S and VH N55A of CBD1033) (Fab, V domains shown)
VH: B1 VH with N55A
VL: B1 VL with A30S
notes: also called D30S and N55A
As to B7, in experiment [1], the Kd was 0.617 nM, the koff worked out at 7.02e-05 s⁻¹ and the kon came out at 114000 M⁻¹ s⁻¹.

B8: CBD1049 (antibody, human IgG1, kappa, L234A L235A, V domains shown)
VH: B1 VH with M48I, M70L, T74Y, T116L
VL: B4 VL with R72G
notes: also called h1017-H10/L5 whole antibody hIgG1-LALAPA
In the case of B8, the Kd in experiment [3] worked out at 3 nM.

B9: CBD1045 (antibody, human IgG1, kappa, L234A L235A, V domains shown)
VH: B1 VH with M48I, Q65K, M70I, V72A, T116L
VL: B4 VL with R72G
notes: also called h1017-H8/L5 whole antibody hIgG1-LALAPA
In the case of B9, in experiment [3], the Kd stood at 4.18 nM.

B10: CBD1037-hIgG1-LALAPA (antibody, V domains shown)
VH: B1 VH with T74Y
VL: B2 VL
notes: also called h1017-H4/L2 whole antibody
Consider B10, for which, in experiment [4], the Kd turned out to be 2.32 nM. For the same molecule, the EC50 (usually the midpoint of the concentration-response curve) in experiment [5] amounted to 2.42 nM.

B11: CBD1036-hIgG1-LALAPA (antibody, V domains shown)
VH: B1 VH with V20I, M48I, V68A, M70L, V117L
VL: B2 VL with G72R
notes: also called h1017-H3/L3 whole antibody
With B11, the Kd in experiment [4] turned out to be 5.15 nM. The midpoint of the response in experiment [5], the EC50, lay at 2.69 nM.

B12: CBD1033.45 disulfide-engineered F(ab') analog (IgG1, truncated T238, C233S) (Fab, V domains shown)
VH: B1 VH
VL: B2 VL
notes: also called .45 design
As for B12, in experiment [2], the Kd was 9.03 nM, the koff amounted to 0.000117 s⁻¹ and the on-rate (kon) was 13000 M⁻¹ s⁻¹.

B13: CBD1046 (antibody, human IgG1, kappa, L234A L235A, V domains shown)
VH: B1 VH with M48I, Q65K, M70I, V72A, T116L
VL: B4 VL
notes: also called h1017-H8/L6 whole antibody hIgG1-LALAPA
As for B13, in experiment [3], the dissociation constant (Kd) is 9.78 nM.

B14: CBD1047 (antibody, human IgG1, kappa, L234A L235A, V domains shown)
VH: B1 VH with M70L, T74Y, T116L
VL: B4 VL with R72G
notes: also called h1017-H9/L5 whole antibody hIgG1-LALAPA
In the case of B14, the equilibrium dissociation constant (Kd) in experiment [3] was found to be 2.72 nM.

B15: CBD1042 (antibody, human IgG1, kappa, L234A L235A, V domains shown)
VH: B1 VH with M48I, M70I, V72A, T116L
VL: B4 VL with V62I, R72G
notes: also called h1017-H7/L4 whole antibody hIgG1-LALAPA
On to B15, for which the Kd in experiment [3] turned out to be 3.59 nM.

B16: CBD1622 Fab (VL D30S and VH N55Q of CBD1033) (Fab, V domains shown)
VH: B1 VH with N55Q
VL: B1 VL with A30S
notes: also called D30S and N55Q
Regarding B16, in experiment [1], the Kd stood at 2.91 nM, the koff is 9.97e-05 s⁻¹ and the kon was found to be 34300 M⁻¹ s⁻¹.

B17: CBD1038-hIgG1-LALAPA (antibody, V domains shown)
VH: B1 VH with T74Y
VL: B2 VL with G72R
notes: also called h1017-H4/L3 whole antibody
On to B17, for which the Kd in experiment [4] is 4.74 nM. For the same molecule, the EC50 in experiment [5] is 2.57 nM.

B18: CBD1050 (antibody, human IgG1, kappa, L234A L235A, V domains shown)
VH: B1 VH with M48I, M70L, T74Y, T116L
VL: B4 VL
notes: also called h1017-H10/L6 whole antibody hIgG1-LALAPA
Consider B18, for which the dissociation constant Kd in experiment [3] was 6.41 nM.
